Biological target: Rfa3 DNA-binding domain-E (DBD-E), OB domain, residues 1-99 (S. cerevisiae, UniProt P26755 1-99, fluorescent label NT-495 (Monolith NT protein-labeling Kit Blue-Cys) on free cysteine residues)
Test: MST

Sequence of Rfa3 DNA-binding domain-E (DBD-E), OB domain, residues 1-99 (P26755 1-99): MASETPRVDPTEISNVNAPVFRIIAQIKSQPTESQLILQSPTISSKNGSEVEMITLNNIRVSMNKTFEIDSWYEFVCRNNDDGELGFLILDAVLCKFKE

- EC50: 36 µM
B1: Rfa1 DBD-A (residues 178-294) phosphomimetic S178D (domain or fragment)
chain: DQKTRPIFAIEQLSPYQNVWTIKARVSYKGEIKTWHNQRGDGKLFNVNFLDTSGEIRATAFNDFATKFNEILQEGKVYYVSKAKLQPAKPQFTNLTHPYELNLDRDTVIEECFDESN
